# In publication PMC6929975, “A supramolecular protein chaperone for vaccine delivery” (Theranostics, 2020):
# Starred links: 1 amine or outer side, 2 acyl side, 3 side chain; linkers in the order of their positions; H or OH if unused. Non-standard residues stand in square brackets, D forms with d. Groups on a side chain read outwards from the residue. *: point of attachment. Fbp = flurbiprofen, CC(C(=O)*)c1ccc(-c2ccccc2)c(F)c1; γGlu = O=C(O)[C@H](CCC(=O)[*:2])N[*:1]
# B1: Fbp-G^DF^DF^DY^DK(γE)2-NH2 (peptide)
# peptide: Fbp-G[dF][dF][dY][dK]([γGlu-γGlu])-NH2
# SMILES: CC(C(=O)NCC(=O)N[C@H](Cc1ccccc1)C(=O)N[C@H](Cc1ccccc1)C(=O)N[C@H](Cc1ccc(O)cc1)C(=O)N[C@H](CCCCNC(=O)CC[C@H](NC(=O)CC[C@H](N)C(=O)O)C(=O)O)C(N)=O)c1ccc(-c2ccccc2)c(F)c1
# notes: also called Comp; supramolecular protein chaperone; source: synthetic peptide (Fmoc SPPS on Rink resin, purified by HPLC)
# What was measured:
# [1] = target: Hepatitis B surface antigen (hepatitis B virus, UniProt P03138 1-389, fluorescent dye NT-647 (cysteine-reactive Monolith NT Protein Labelling Kit)); assay: MST; proteins labelled with NT-647 held at constant concentration; Comp. 1 or 2 varied from 0.25 μM to 10 mM; PBS with 0.05% Tween-20, pH 7.4; Monolith NT.115, standard glass capillaries; settings: both partners purified
# ovalbumin = target: T1, ovalbumin (UniProt P01012 1-386, fluorescent dye NT-647 (cysteine-reactive Monolith NT Protein Labelling Kit)); assay: as above; settings: both partners purified
# T1 construct: source: bought: InvivoGen (endotoxin free)
# T1 sequence (looked up): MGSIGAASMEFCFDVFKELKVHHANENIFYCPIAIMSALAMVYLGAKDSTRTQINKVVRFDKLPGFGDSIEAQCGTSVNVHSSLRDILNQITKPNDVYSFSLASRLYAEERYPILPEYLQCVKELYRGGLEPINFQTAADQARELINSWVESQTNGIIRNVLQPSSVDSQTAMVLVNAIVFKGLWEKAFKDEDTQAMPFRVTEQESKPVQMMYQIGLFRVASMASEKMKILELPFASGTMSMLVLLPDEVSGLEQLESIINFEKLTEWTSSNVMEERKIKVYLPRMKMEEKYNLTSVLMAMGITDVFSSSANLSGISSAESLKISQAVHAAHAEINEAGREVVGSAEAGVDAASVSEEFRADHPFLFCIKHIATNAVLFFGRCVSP
binder,measurement,setting,value
B1,Kd,[1],68 µM
same,Kd,ovalbumin,83.3 µM
